T1: LAG-3 (human, UniProt P18627 23-450, limits assumed)
T1 sequence (looked up): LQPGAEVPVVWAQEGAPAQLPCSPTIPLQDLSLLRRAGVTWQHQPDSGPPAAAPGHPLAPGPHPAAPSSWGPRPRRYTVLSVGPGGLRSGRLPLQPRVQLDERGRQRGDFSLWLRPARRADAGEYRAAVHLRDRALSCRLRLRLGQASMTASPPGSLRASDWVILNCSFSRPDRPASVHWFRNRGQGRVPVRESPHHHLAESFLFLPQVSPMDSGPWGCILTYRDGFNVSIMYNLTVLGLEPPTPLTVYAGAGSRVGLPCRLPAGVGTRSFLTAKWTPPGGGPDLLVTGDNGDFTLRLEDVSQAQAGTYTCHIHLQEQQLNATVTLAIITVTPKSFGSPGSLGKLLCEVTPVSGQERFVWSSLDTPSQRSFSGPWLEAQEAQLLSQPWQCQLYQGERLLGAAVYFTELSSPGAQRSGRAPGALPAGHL


The binders below were run against T1, LAG-3 (assay: cell-based or functional assay).

EC50 of IL-2 secretion in mixed lymphocyte reaction (CD4+ T cells + DC, 5 days) | Binder
0.024 µg/mL | MA-1 鼠源抗体 (mouse IgG1 / mouse Ck) (antibody) heavy: EVQLQQSGAELVKPGASVKLSCTASGFNIKDTYMHWVKQRPEQGLEWIGKIDPANGNTKYDPKFQGKATITADTSSNTAYLQLSRLTSEDTAVYYCARDTTVGLDYWGQGTTLTVSSAKTTPPSVYPLAPGSAAQTNSMVTLGCLVKGYFPEPVTVTWNSGSLSSGVHTFPAVLQSDLYTLSSSVTVPSSTWPSETVTCNVAHPASSTKVDKKIVPRDCGCKPCICTVPEVSSVFIFPPKPKDVLTITLTPKVTCVVVDISKDDPEVQFSWFVDDVEVHTAQTQPREEQFNSTFRSVSELPIMHQDWLNGKEFKCRVNSAAFPAPIEKTISKTKGRPKAPQVYTIPPPKEQMAKDKVSLTCMITDFFPEDITVEWQWNGQPAENYKNTQPIMDTDGSYFVYSKLNVQKSNWEAGNTFTCSVLHEGLHNHHTEKSLSHSPG light: DIVITQSTAIMSASLGEKVTMSCRASSSVNYMYWYQQKSDASPKLWIYYTSKLASGVPARFSGSGSGTSYSLTISSMEAEDAATYYCQQWSSNPHTFGGGTKLEIKADAAPTVSIFPPSSEQLTSGGASVVCFLNNFYPKDINVKWKIDGSERQNGVLNSWTDQDSKDSTYSMSSTLTLTKDEYERHNSYTCEATHKTSTSPIVKSFNRNEC
0.03 µg/mL | MA-2 鼠源抗体 (mouse IgG1 / mouse Ck) (antibody, V domains shown) VH: EVQLQQSGAELVKPGASVKLSCTASGFNIKDTYMHWVKQRPEQGLEWIGKIDPANGNTKYDPKFQGKATITADTSSNTAYLQLSRLTSEDTAVYYCARDTTVGLDYWGQGTTLTVSS VL: DIVLTQTPAIMSASLGEKVTMSCRASSSVNYMYWYQQKSDASPKLWIYYTSNLAPGVPARFSGSGSGNSYSLTISSMEGEDAATYYCQQFTSSPSMTFGGGTKLEIKA

Second part, the binder before the results:

Binder | EC50 of IL-2 secretion in mixed lymphocyte reaction (CD4+ T cells + DC, 5 days)
MA-3 鼠源抗体 (mouse IgG1 / mouse Ck) (antibody, V domains shown) VH: EVKLEESGPELVKPGASVKISCKASGYSFTSYYIHWVKQRPGQGLEWIGWIFPGTGNTRYNEKFKGKATLTADTSSSTVYMQLSGLTSEDSAVYFCARIGGRLTGDAMDYWGQGTSVTVSS VL: DIVLTQSTASLAVSLGQRATISCRASESVDSYGNSFMHWYQQKPGQPPKLLIYLASNLESGVPARFSGSGSRTDFTLTIDPVEADDAATYYCQQNNEDPWTFGGGTKLEIKA | 0.076 µg/mL
MA-4 鼠源抗体 (mouse IgG1 / mouse Ck) (antibody, V domains shown) VH: QVKLEESGPGLVQPSQSLSITCTVSAFSLTTYAVHWVRQSPGKGLEWLGVIWSGGSTDYNTAFISRLNITKDNSKSQVFFKMNSLQANDTAIYYCARLDGTFFDYWGQGTTLTVSS VL: DIVLTQTPAIMSASLGERVTMTCTASSSVSSSYLHWYQQKPGSSPKLWIYSTSNLASGVPARFSGSGSGTSYSLTISSMEAEDAATYYCHQYHRSPPTFGGGTKLEIKA | 0.121 µg/mL

Target: T1, LAG-3
Experiment: cell-based or functional assay
Remark: another data set of the same source

EC50 of T cell proliferation (CCK8) in mixed lymphocyte reaction | Binder
0.0318 µg/mL | 人源化抗体HA-5 (human IgG4 / human Ck) (antibody, V domains shown) VH: QVQLVQSGAEVKKPGASVKVSCKASGYNIKDTYMHWVKQAPGQGLEWIGKIDPANGNTKYDPKFQGKATITADTSISTAYMELSRLRSDDTAVYYCARDTTVGLDYWGQGTLVTVSS VL: DIVITQSPAFLSVTPGEKVTITCRASSSVNYMYWYQQKPDASPKLWIYYTSKLASGVPARFSGSGSGTSYTFTISSLEAEDAATYYCQQWSSNPHTFGGGTKVEIKR
0.00723 µg/mL | 嵌合抗体CA-1 (antibody, human IgG4 S228P, kappa) heavy: not shown light: DIVITQSTAIMSASLGEKVTMSCRASSSVNYMYWYQQKSDASPKLWIYYTSKLASGVPARFSGSGSGTSYSLTISSMEAEDAATYYCQQWSSNPHTFGGGTKLEIKRTVAAPSVFIFPPSDEQLKSGTASVVCLLNNFYPREAKVQWKVDNALQSGNSQESVTEQDSKDSTYSLSSTLTLSKADYEKHKVYACEVTHQGLSSPVTKSFNRGEC

The next lines start with the binder.

Binder | EC50 of T cell proliferation (CCK8) in mixed lymphocyte reaction
人源化抗体HA-4 (human IgG4 / human Ck) (antibody, V domains shown) VH: QVQLVQSGAEVKKPGASVKVSCKASGYNITDTYMHWVRQAPGQGLEWIGKIDPANGNTKYDPKFQGRATITADTSISTAYMELSRLRSDDTAVYYCARDTTVGLDYWGQGTLVTVSS VL: DIVITQSPAFLSVTPGEKVTITCRASSSVNYMYWYQQKPDASPKLWIYYTSKLASGVPSRFSGSGSGTDYTFTISSLEAEDAATYYCQQWSSNPHTFGGGTKVEIKR | 0.0338 µg/mL
人源化抗体HA-3 (human IgG4 / human Ck) (antibody, V domains shown) VH: QVQLVQSGAEVKKPGASVKVSCKASGYNITDTYMHWVRQAPGQGLEWIGKIDPANGNTKYDPKFQGRATITADTSISTAYMELSRLRSDDTAVYYCARDTTVGLDYWGQGTLVTVSS VL: DIVITQSPAFLSVTPGEKVTITCRASSSVNYMYWYQQKPDQAPKLLIYYTSKLASGVPSRFSGSGSGTDYTFTISSLEAEDAATYYCQQWSSNPHTFGGGTKVEIKR | 0.015 µg/mL
人源化抗体HA-1 (human IgG4 / human Ck) (antibody, V domains shown) VH: QVQLVQSGAEVKKPGASVKVSCKASGYTFTDTYMHWVRQAPGQGLEWIGKIDPANGNTKYDPKFQGRATITADTSISTAYMELSRLRSDDTAVYYCARDTTVGLDYWGQGTLVTVSS VL: DIVITQSPAFLSVTPGEKVTITCRASSSVNYMYWYQQKPDASPKLWIYYTSKLASGVPSRFSGSGSGTDYTFTISSLEAEDAATYYCQQWSSNPHTFGGGTKVEIKR | 0.00688 µg/mL
人源化抗体HA-2 (human IgG4 / human Ck) (antibody, V domains shown) VH: QVQLVQSGAEVKKPGASVKVSCKASGYTFTDTYMHWVRQAPGQGLEWIGKIDPANGNTKYDPKFQGRATITADTSISTAYMELSRLRSDDTAVYYCARDTTVGLDYWGQGTLVTVSS VL: DIVITQSPAFLSVTPGEKVTITCRASSSVNYMYWYQQKPDQAPKLLIYYTSKLASGVPSRFSGSGSGTDYTFTISSLEAEDAATYYCQQWSSNPHTFGGGTKVEIKR | 0.0271 µg/mL
